Results on six molecules are retold here after PMC6274577 (2016).

In one assay the target is IL-11Rα (Mus musculus) (UniProt Q64385). The assay is described as follows: cell binding. The note with it: cited from earlier work.
In assay [1] the target is recombinant extracellular domain of human interleukin-11 receptor subunit α (M1-V363) with a fused polyhistidine tag at the C-terminus (human) (UniProt Q14626).
For assay [2], the target named is sIL-11Rα ECD (Homo sapiens) (UniProt Q14626). As to the kind of experiment: SPR. To be noted: cited from earlier work.
A further assay has as its target T1, sIL-11Rα ECD (Homo sapiens, UniProt Q14626).
T1 chain: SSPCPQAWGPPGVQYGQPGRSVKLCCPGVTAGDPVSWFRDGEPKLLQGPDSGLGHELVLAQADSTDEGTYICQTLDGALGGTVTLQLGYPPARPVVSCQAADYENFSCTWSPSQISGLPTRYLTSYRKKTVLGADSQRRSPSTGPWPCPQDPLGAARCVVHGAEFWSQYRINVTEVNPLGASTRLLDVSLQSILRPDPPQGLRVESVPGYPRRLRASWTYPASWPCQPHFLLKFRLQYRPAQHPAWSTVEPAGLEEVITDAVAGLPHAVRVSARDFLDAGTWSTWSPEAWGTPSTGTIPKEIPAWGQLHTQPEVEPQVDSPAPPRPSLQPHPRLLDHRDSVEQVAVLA
The assay is described as follows: SPR. Background: In SPR one partner is held on a chip, and binding of the other changes the refractive index at the surface.

The target in assay [3] is macaque recombinant interleukin-11 (rIL-11), Macaca fascicularis, mature protein lacking Pro1 (Macaca fascicularis) (UniProt P20808). The assay is described as follows: SPR; biotinylated rIL-11 immobilised on NeutrAvidin NLC sensor chip (up to 2000 RU); 5-80 nM sIL-11Rα as analyte; 25 °C; PBS, 0.05% TWEEN 20, pH 7.4; heterogeneous ligand model (two ligand populations).
Assay [4] deals with murine recombinant interleukin-11 (rIL-11), Mus musculus, mature protein lacking Pro1 (Mus musculus) (UniProt P47873). The assay is described as above.

Several values for one entry are separate records, joined by “and”; a condition that tells them apart may be missing. Identical values can stand only once.

Sequence of IL-11Rα (Mus musculus) (Q64385 24-372): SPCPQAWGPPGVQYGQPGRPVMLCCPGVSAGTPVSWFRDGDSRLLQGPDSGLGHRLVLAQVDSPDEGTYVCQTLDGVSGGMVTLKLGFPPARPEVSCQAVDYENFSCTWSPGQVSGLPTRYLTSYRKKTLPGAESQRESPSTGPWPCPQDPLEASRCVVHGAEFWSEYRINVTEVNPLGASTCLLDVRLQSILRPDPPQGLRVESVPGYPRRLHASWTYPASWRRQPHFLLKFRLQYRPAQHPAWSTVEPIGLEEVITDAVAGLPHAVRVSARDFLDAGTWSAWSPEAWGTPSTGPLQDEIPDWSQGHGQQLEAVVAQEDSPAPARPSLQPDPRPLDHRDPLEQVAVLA

With IL-11 (from UniProt P47873), the dissociation constant Kd in the assay with IL-11Rα (Mus musculus) was 10 nM.
As for “macaque recombinant interleukin-11 (rIL-11), Macaca fascicularis, mature protein lacking Pro1 (from UniProt P20808 23-199) (ligand)”, the EC50 of STAT3 activation (SEAP secretion, QUANTI-Blue assay) in HEK-Blue IL-6 cells stably transfected with human IL-11Rα gene in assay [1] was found to be 0.006 nM.
The same measure, in the same setting: the result for “murine recombinant interleukin-11 (rIL-11), Mus musculus, mature protein lacking Pro1 (from UniProt P47873 23-199) (ligand)” reads 0.084 nM.
On to IL-11 (from UniProt P20809), for which, in assay [2], the Kd is 21.9 nM and 7 nM.

B1: IL-11 (protein)
chain: PGPPPGSPRASPDPRAELDSTVLLTRSLLEDTRQLTIQLKDKFPADGDHNLDSLPTLAMSAGALGALQLPSVLTRLRADLLSYLRHVQWLRRAMGSSLKTLEPELGTLQTRLDRLLRRLQLLMSRLALPQLPPDPPAPPLAPPSSTWGGIRAAHAILGGLHLTLDWAVRGLLLLKTRL
Take B1: in the assay with sIL-11Rα ECD, the Kd was 8.9 nM and 4.2 nM.

B2: recombinant extracellular domain of human interleukin-11 receptor subunit α (M1-V363) with a fused polyhistidine tag at the C-terminus (receptor)
chain: SSPCPQAWGPPGVQYGQPGRSVKLCCPGVTAGDPVSWFRDGEPKLLQGPDSGLGHELVLAQADSTDEGTYICQTLDGALGGTVTLQLGYPPARPVVSCQAADYENFSCTWSPSQISGLPTRYLTSYRKKTVLGADSQRRSPSTGPWPCPQDPLGAARCVVHGAEFWSQYRINVTEVNPLGASTRLLDVSLQSILRPDPPQGLRVESVPGYPRRLRASWTYPASWPCQPHFLLKFRLQYRPAQHPAWSTVEPAGLEEVITDAVAGLPHAVRVSARDFLDAGTWSTWSPEAWGTPSTGTIPKEIPAWGQLHTQPEVEPQVDSPAPPRPSLQPHPRLLDHRDSV
With B2, in assay [3], the Kd1 (KD, ligand population 1) is 4.2 nM; the Kd2 (KD, ligand population 2) is 8.9 nM; the kd1 (koff, ligand population 1) was determined as 0.000815 s⁻¹; the kd2 (koff, ligand population 2) is 0.0038 s⁻¹. Moreover, in assay [4], the Kd1 (KD, ligand population 1) was found to be 2.2 nM; the Kd2 (KD, ligand population 2) was determined as 14.6 nM; the kd1 (koff, ligand population 1) was 0.0007 s⁻¹; the kd2 (koff, ligand population 2) is 0.0061 s⁻¹.

The term Kd denotes the constant that tells how readily two partners part at equilibrium.
